# Data: paper PMC4267192
# Biological target: CCA1-GST (UniProt P92973)
# Assay: EMSA
# Details: 25 mM HEPES-KOH pH 7.5, 50 mM KCl, 2.5 mM DTT, 1 mM PMSF, 10% glycerol, 1 ug poly-dIdC in 10 ul, 20 min on ice (final concentrations calculated from 5X …)
# Chain of CCA1-GST (P92973 whole entry): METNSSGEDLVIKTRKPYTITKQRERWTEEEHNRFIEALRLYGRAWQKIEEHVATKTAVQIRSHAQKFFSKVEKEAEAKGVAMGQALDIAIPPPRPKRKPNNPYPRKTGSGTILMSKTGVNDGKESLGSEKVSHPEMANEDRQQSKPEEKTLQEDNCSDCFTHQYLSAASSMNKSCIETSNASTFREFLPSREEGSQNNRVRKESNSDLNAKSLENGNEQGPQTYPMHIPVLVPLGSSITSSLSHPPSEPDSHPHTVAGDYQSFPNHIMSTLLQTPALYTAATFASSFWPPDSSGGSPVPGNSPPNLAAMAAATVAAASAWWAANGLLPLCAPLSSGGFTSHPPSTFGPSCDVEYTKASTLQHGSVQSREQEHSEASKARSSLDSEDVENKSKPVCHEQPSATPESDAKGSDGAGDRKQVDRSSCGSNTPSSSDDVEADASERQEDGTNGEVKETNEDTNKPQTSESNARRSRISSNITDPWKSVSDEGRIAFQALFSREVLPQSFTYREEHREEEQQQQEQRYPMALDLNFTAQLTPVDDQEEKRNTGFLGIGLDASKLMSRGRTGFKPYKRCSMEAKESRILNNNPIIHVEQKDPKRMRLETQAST
row,Sequence,binding
1,AATCAATTCCTCTCTCTTAAAACAAAGAAGAAAAAAACAGAGAAGAAGAAGAAAAAATCTATCTCCGCCATGAACGCGAGAGCTCTTCTTTGCTCTTCAAATATTCACTCTCTCTAC (double strand) [PHT4;1 promoter probe 3],binds
2,GTTAGCTTACGAGCATAAATTGCGAGATCTATCTTACTTCCCCAATGAAAAAAAAATCTCAAAGATTTGGAAGTAGACCTATGAATAGAATTACAATAATACGGCAATACCAATAACAA (double strand) [PHT4;1 promoter probe 2],binds
